Test system: MS2 coat protein
Experiment: apparent KD of MS2 coat protein; designed switch direction (-1 OFF switch, 1 ON switch): -1; higher = weaker reporter binding
Outline: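 Each step of the titration lasted 0.8–1.5 h at the lowest concentration and 10–20 min at the highest. The protein, SNAP-549-labelled MS2 coat protein, went from 0.7 or 1.5 nM doubling to 3 µM over RNA switches transcribed on Illumina chips by stalled E. coli RNA polymerase. Normalised cluster fluorescence was curve-fitted, and the per-design median over clusters is given as apparent KD.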

[1] = Eterna round: R95, input ligand: FMN 200 uM
[2] = Eterna round: R95, input ligand: microRNA oligo, concentration not stated
[3] = Eterna round: R95, input ligand: none
[4] = input ligand: microRNA oligo, concentration not stated

Sequence	apparent KD of MS2 coat protein (input ligand: FMN 200 uM)	apparent KD of MS2 coat protein (input ligand: none)	apparent KD of MS2 coat protein [1]	apparent KD of MS2 coat protein [2]	apparent KD of MS2 coat protein [3]	apparent KD of MS2 coat protein [4]
GAAAACGUAGGAUAUUAAUACUCAGACAUGAGGAUCACCCAUGUUUGGUGGGUUUAAGAAUGAGAAGGGCGAUGAA [EX5 #6] (Eterna round: R97, puzzle: Exclusion 5)	49 nM	49 nM	–	–	–	–
GAAAACGUAGGAUAUUAAUACUUAUACAUGAGGAUCACCCAUGUUUGGUGGGUAAAAGAAUGAGAAGGGCGAUGAA [EX5 #9] (Eterna round: R97, puzzle: Exclusion 5)	392 nM	425 nM	–	–	–	–
GAAAAGGUAGAGGAUAUUUCAGAUCAAAGCUGCAAAGAAGGCUGCACAUGAGGAUCACCCAUGUGGUCAAUAAA [Mod of Quesina 12 - Jieux - Exclusion 6] (Eterna round: R97, puzzle: Exclusion 6)	59.7 nM	20.9 nM	–	–	–	–
GAAAAGGUAGGAUAUACGAAAAGAAAGGGUAGAAGAAGAACACAUGAGGAUCACCCAUGUAGAAGGACCAAAAG [Mat - Exclusion 2 - Mod of my Tesla design - D1] (puzzle: Exclusion 2)	–	–	73.1 nM	18.5 nM	16.5 nM	–
GAAAAGGUAGGAUAUCGAGACCAUAACAUGAGGAUCACCCAUGUGAUACCUACAGUGGUCCGAGAAGGACCAUAUA [Iserdianqu] (puzzle: Exclusion 5)	–	–	62.1 nM	20.4 nM	19.3 nM	–
GAAAAGUAAGGAUAUGUCCACAGUGAGGAAACUCACUGUGGACAGAAGGUACAUGAGGAUCACCCAUGUUCCUC [ExDelusion 4 - Jieux - Exclusion 4] (Eterna round: R97, puzzle: Exclusion 4)	577 nM	44.2 nM	–	–	–	–
GAACUAAAGCAAAGCUUUAGUCGUACAUGAGGAUCACCCAUGUAGGAUAUGGUAGGCAAAGCAUACCAGAAGGACAGAGUGAUC [Mat - Exclusion NG 3 - Mod of JL - D63] (Eterna round: R96, puzzle: Exclusion NG 3)	211 nM	371 nM	–	–	–	134 nM
GAACUGAGGCAAAGCUUUAGUCGUACAUGAGGAUCACCCAUGUAGGAUAUGGUAGGCAAAGCAUACCAGAAGGACAGAGUGAUC [Mat - Exclusion NG 3 - Mod of JL - D61] (Eterna round: R96, puzzle: Exclusion NG 3)	877 nM	476 nM	–	–	–	313 nM
GAAGAAGAGAGAAAAGAAAACAUGAGGAUCACCCAUGUGAGAAGAUGAGGGUGUAGCAGGCUUUAUGCUCGUCUUAU (puzzle: Sensor v3, turn-off variant 1)	–	–	27.5 nM	78.5 nM	27.9 nM	–
GAAGAGACAGGAUAUACAUGAGGAUCACCCAUGUGAGGAGGAAGAGAGAGGAGAAGGAGUAGAAGGGUCAGAGG [JR_Exclu3_Sub028] (puzzle: Exclusion 3)	–	–	32.1 nM	41.2 nM	46.5 nM	–
GAAGUUAGAGGAUAUACAUGAGGAUCACCCAUGUAUGAAGUUAACUUUGUAUAUAAAUGUAGAAGGCUAACUUC [-21.1, -19.6 kcal, 36% A] (Eterna round: R97, puzzle: Exclusion 3)	41.6 nM	25.6 nM	–	–	–	–
GAAUACAAGCAAAGAUCCUACAUGAGGAUCACCCAUGUGCUCGUCUUGUAAAGUACUAUCACGAAAGUGAUAGUACA [Mat - Sensor v3 - turn-off var 1 - Eli Mod - D78] (puzzle: Sensor v3, turn-off variant 1)	–	–	76.7 nM	16.9 nM	60.1 nM	–
GACAUGUGAGGAUAUUGCAUAUAGUUAUAAGUUCAGGGCGGCAAGAAGGCACAUGAGGAUCACCCAUGUACCUU [Eternabot (L2) Solution 81] (Eterna round: R97, puzzle: Exclusion 4)	18.7 nM	15.3 nM	–	–	–	–
GACGCUGACCGAGGAUAUACAAUAAAACAACAAACACCUCGUGUCAGAACAUGAGGAUCACCCAUGUAGAAGGCGGCAGGUCUA [Teateus] (Eterna round: R96, puzzle: Exclusion NG 2)	–	–	–	–	–	31.6 nM
GACUAGAGAGGAUAUAUUUACAGUGUACCUCGGAUGAUCGCACUUGAGGAUCACCCAAGUAGAAGGCUCGAGGG [EX2 #29] (Eterna round: R97, puzzle: Exclusion 2)	11 nM	15.2 nM	–	–	–	–
GACUGCCGAGGAUAUACAUGAGGAUCACCCAUGUGCUUCAGUAUCGAAAGAUGCAUGGGUAGAAGGCGGUAGUC [LRO-Excl3-10] (Eterna round: R96, puzzle: Exclusion 3)	912 nM	1410 nM	–	–	–	627 nM
GACUGCCGAGGAUAUACAUGAGGAUCACCCAUGUGCUUCAGUAUCGAAAGAUGCAUGGGUAGAAGGCGGUAGUC [LRO-Excl3-10] (puzzle: Exclusion 3)	–	–	–	172 nM	–	–
GACUGCUGAGGAUAUACAUGAGGAUCACCCAUGUGCUUCAGCUACGAGAGUAGCAUUGGUAGAAGGUAGUAGUC [LRO-Excl3-04] (puzzle: Exclusion 3)	–	–	–	11.1 nM	–	–

Sequence	apparent KD of MS2 coat protein (input ligand: FMN 200 uM)	apparent KD of MS2 coat protein (input ligand: none)	apparent KD of MS2 coat protein [1]	apparent KD of MS2 coat protein [2]	apparent KD of MS2 coat protein [3]	apparent KD of MS2 coat protein [4]
GACUGUCUAGGAUAUGCGACGUUUUACAUGAGGAUCACCCAUGUUGUCUGCGUGUGUGUGGCAGAAGGAGACAAAC [Eses] (puzzle: Exclusion 5)	–	–	–	13.3 nM	–	–
GACUUCUCUGAGGAUAUUGCAUCAUACGAUUUAUAAGAAGGCAGAACAUGAGGAUCACCCAUGUGGGUUUUUAG [Bingo-Bango-30] (Eterna round: R97, puzzle: Exclusion 6)	102 nM	55 nM	–	–	–	–
GAGAAACAUGAGGAUCACCCAUGUGAGGAUAUGAAAAAGAAAAGAAAAGAAAGAAGAAUCAGAAGGCACAAAGG [salish99-ex1_r3_078] (puzzle: Exclusion 1)	–	–	45.3 nM	30.8 nM	39.1 nM	–
GAGAACGUAGGAUAUACAUGAGGAUCACCCAUGUGAGGAAGGAGUAGGAAGAGUGGAAGUAGAAGGACGGAGAG [JR_Exclu3_Sub072] (puzzle: Exclusion 3)	–	–	47.4 nM	21.9 nM	34.9 nM	–
GAGGAACAUGAGGAUCACCCAUGUAAGGAUAUGCAAAGCGAGGUAGUAGAAGGAGAAGGCAGAAGGUACACGGA [JR_Exclu1_Sub075] (puzzle: Exclusion 1)	–	–	31.9 nM	29.6 nM	45.3 nM	–
GAGGCUAAAGGAUAUACAUGAGGAUCACCCAUGUGGAGGAAGGUUAGAUGAGGAGAAGGUAGAAGGUUAGGCGG [JR_Exclu3_Sub094] (puzzle: Exclusion 3)	–	–	–	31.1 nM	–	–
GAGUGACAUGAGGAUCACCCAUGUGAGGAUAUCGGACGGACCAAAUUAACAAUAAAUGCGAGAAGGCGCAUCGG [Exclusion 1 V16] (puzzle: Exclusion 1)	–	–	46.7 nM	43.3 nM	54.3 nM	–
GAGUGACAUGAGGAUCACCCAUGUGAGGAUAUCGGACGGACCUUGUUAGCUUCCGCCGCGAGAAGGCACAUCGG [Exclusion 1 V25] (puzzle: Exclusion 1)	–	–	–	94.3 nM	–	–
GAGUGACAUGAGGAUCACCCAUGUGAGGAUAUCGGCCGGACCUUGUUAGCUUCCGCCGCGAGAAGGCACAUCGG [Exclusion 1 V28] (puzzle: Exclusion 1)	–	–	–	55.9 nM	–	–
GAGUGCUGAGGAUAUACAUGAGGAUCACCCAUGUGCUUCAGCUAGGAGACUAGCAUUCGUAGAAGGCAGUACUC [Mod of lroppy 22 - Jieux - Exclusion 3] (Eterna round: R97, puzzle: Exclusion 3)	42.6 nM	14.7 nM	–	–	–	–
GAGUGUUGAGGAUAUACAUGAGGAUCACCCAUGUGCUUCAGCUAGGAGACUAGCAUUGGUAGAAGGCAGUACUC [Mod of lroppy 9 - Jieux - Exclusion 3] (Eterna round: R97, puzzle: Exclusion 3)	48.3 nM	37.1 nM	–	–	–	–
GAGUUAGCGUGAGGAAUAUACAUGAGGAUCACCCAUGUUAGCUUAUAUAUUGCUCGUCUUAUAACAACAAUUAACUG [Mod JX-Electric-eye2] (Eterna round: R97, puzzle: Sensor, turn-off variant 1)	25.4 nM	27.2 nM	–	–	–	–
GAUAAAGGGCAGGAUAUGGCUGGAAAAUAUCCGCCAGAAGGGCCCACAUGAGGAUCACCCAUGUGUGGUCCGCG [Lere] (puzzle: Exclusion 6)	–	–	52.3 nM	17.3 nM	19.1 nM	–
GAUAGAGAGCAGGAUAUCUUGGAUAAGUAUAGUAGAGAAGGGCUCACAUGAGGAUCACCCAUGUGGUCCUAGAU [JL Dibiri mod 11] (puzzle: Exclusion 6)	–	–	43.8 nM	14.9 nM	15 nM	–
GAUAGAGAGCAGGAUAUCUUGGAUAAGUAUUGUAGAGAAGGGCUCACAUGAGGAUCACCCAUGUGGUCCUAGAU [JL Dibiri mod 10] (puzzle: Exclusion 6)	–	–	–	14.8 nM	–	–
GAUCACUGAGGAUAUACACAGAUACAAAGUAUCUGACCGUGACAUGAGGAUCACCCAUGUAGAAGGCAGAGGUC [Omei Ex2 B1] (Eterna round: R97, puzzle: Exclusion 2)	384 nM	47.2 nM	–	–	–	–
GAUCCACAUGAGGAUCACCCAUGUGAGGAUAUGAUACUAUGUACUUCGGUACAUAGUAUCAGAAGGCACGGGUC [Ex1-3: 55] (puzzle: Exclusion 1)	–	–	–	72.5 nM	–	–
GAUCCGAUUGUCAGGAUAUUCAAAACGGCGCAAAAGAAGAAGGGACAUGAGGAUCACCCAUGUAUACGCCACCA [Usisbima] (Eterna round: R97, puzzle: Brourd's mod of Exclusion 4)	36.7 nM	332 nM	–	–	–	–
